Reference: patent US20080274096
Entries after “also recorded” stand apart in the source; their conditions may differ.

Columns and labels:
[1] = biological target: Amyloid β1-40 peptide (Bachem)
[2] = biological target: amyloid β peptide1-42 in guinea pig plasma, Q60495
[3] = biological target: amyloid β peptide1-40 in guinea pig plasma, Q60495

B1: Recombinant human Neprilysin (R&D Systems) (protein)
chain: YDDGICKSSDCIKSAARLIQNMDATTEPCTDFFKYACGGWLKRNVIPETSSRYGNFDILRDELEVVLKDVLQEPKTEDIVAVQKAKALYRSCINESAIDSRGGEPLLKLLPDIYGWPVATENWEQKYGASWTAEKAIAQLNSKYGKKVLINLFVGTDDKNSVNHVIHIDQPRLGLPSRDYYECTGIYKEACTAYVDFMISVARLIRQEERLPIDENQLALEMNKVMELEKEIANATAKPEDRNDPMLLYNKMTLAQIQNNFSLEINGKPFSWLNFTNEIMSTVNISITNEEDVVVYAPEYLTKLKPILTKYSARDLQNLMSWRFIMDLVSSLSRTYKESRNAFRKALYGTTSETATWRRCANYVNGNMENAVGRLYVEAAFAGESKHVVEDLIAQIREVFIQTLDDLTWMDAETKKRAEEKALAIKERIGYPDDIVSNDNKLNNEYLELNYKEDEYFENIIQNLKFSQSKQLKKLREKVDKDEWISGAAVVNAFYSSGRNQIVFPAGILQPPFFSAQQSNSLNYGGIGMVIGHEITHGFDDNGRNFNKDGDLVDWWTQQSASNFKEQSQCMVYQYGNFSWDLAGGQHLNGINTLGENIADNGGLGQAYRAYQNYIKKNGEEKLLPGLDLNHKQLFFLNFAQVWCGTYRPEYAVNSIKTDVHSPGNFRIIGTLQNSAEFSEAFHCRKNSYMNPEKKCRVW
Amyloid β1-40 peptide degradation (percentage of peptide left, electrochemiluminescence immunoassay) [1]: degraded 88% of Amyloid β1-40 peptide (1 nM) after 3 hours incubation at 37 °C | degradation of Aβ1-42 in guinea pig plasma (ELISA) [2]: Neprilysin degrades Aβ1-40 and Aβ1-42 in a time-dependent manner | degradation of Aβ1-40 in guinea pig plasma (ELISA) [3]: Neprilysin degrades Aβ1-40 and Aβ1-42 in a time-dependent manner; also recorded: Neprilysin degrades Aβ1-40 in a dose dependent manner
